The target in this experiment is GST/BRCA1-1293–1863 (human, UniProt P38398 1293-1863). Kind of experiment: pull-down.
GST/BRCA1-1293–1863, sequence (P38398 1293-1863): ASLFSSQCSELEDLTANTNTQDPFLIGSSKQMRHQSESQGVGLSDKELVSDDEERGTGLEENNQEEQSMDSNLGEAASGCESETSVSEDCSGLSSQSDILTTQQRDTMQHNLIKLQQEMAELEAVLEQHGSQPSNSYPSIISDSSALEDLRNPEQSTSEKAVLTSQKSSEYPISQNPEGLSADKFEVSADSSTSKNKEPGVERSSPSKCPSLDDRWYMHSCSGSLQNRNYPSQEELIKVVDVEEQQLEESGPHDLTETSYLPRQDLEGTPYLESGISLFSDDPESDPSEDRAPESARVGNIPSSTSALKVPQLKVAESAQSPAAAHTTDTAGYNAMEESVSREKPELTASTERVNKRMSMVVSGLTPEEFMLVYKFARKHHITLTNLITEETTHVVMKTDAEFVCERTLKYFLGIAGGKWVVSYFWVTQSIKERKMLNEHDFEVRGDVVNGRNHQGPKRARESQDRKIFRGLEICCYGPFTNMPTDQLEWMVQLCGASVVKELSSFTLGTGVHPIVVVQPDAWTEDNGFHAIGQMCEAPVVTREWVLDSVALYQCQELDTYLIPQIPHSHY

B1: MBP/PALB2-1–70 (domain or fragment, human, UniProt Q86YC2 1-70, looked up)
chain: MDEPPGKPLSCEEKEKLKEKLAFLKREYSKTLARLQRAQRAEKIKHSIKKTVEEQDCLSQQDLSPQLKHS
As to B1, the binding result is “binds”.

Values taken from article PMC4928587 (Molecular cancer research : MCR, 2009).
